By Km is commonly meant the substrate concentration at which the rate is half of its maximum. The term kcat denotes the number of substrate molecules converted per active site and unit of time at saturation. By kcat/Km is commonly meant the second-order rate constant that governs catalysis at low substrate concentration.

Data set [1] has as its system T1, Cc1cc(=O)oc2cc(NC(=O)[C@H](CCCNC(=N)N)NC(=O)[C@H](Cc3ccccc3)NC(=O)OCc3ccccc3)ccc12.
T1 construct: partial coding region (pPICZC) expressed in Pichia pastoris GS115, HiTrap chelating column purified; precursor 341 residues with 17-residue signal peptide
As to the kind of experiment: fluorogenic hydrolysis assay, Michaelis-Menten fit. The note with it: 25 mM citric acid/sodium phosphate, pH 6.0, 5 mM DTT. The data set is classed as biochemical, Haemaphysalis longicornis. From the text: (§1) fluorogenic hydrolysis assay, Michaelis-Menten fit on longipain

Data set [2] has as its system T2, Cc1cc(=O)oc2cc(NC(=O)[C@H](CCCNC(=N)N)NC(=O)[C@H](CCCNC(=N)N)NC(=O)OCc3ccccc3)ccc12.
T2 construct: partial coding region (pPICZC) expressed in Pichia pastoris GS115, HiTrap chelating column purified; precursor 341 residues with 17-residue signal peptide
As to the kind of experiment: fluorogenic hydrolysis assay, Michaelis-Menten fit. Format: biochemical, Haemaphysalis longicornis. To be noted: 25 mM citric acid/sodium phosphate, pH 6.0, 5 mM DTT.
Source text: as §1

Take longipain (Haemaphysalis longicornis): in data set [1], the Michaelis constant (Km) was 12.1 ± 0.08 µM, the turnover number (kcat) turned out to be 550 s⁻¹ and the kcat/Km was 4.5e+07 M⁻¹ s⁻¹. Further, in data set [2], the Michaelis constant (Km) was determined as 16.0 ± 0.2 µM, the kcat was found to be 800 s⁻¹ and the kcat/Km came to 5e+07 M⁻¹ s⁻¹.

Source of the values: publication PMC2358973, “A Cysteine Protease Is Critical for Babesia spp. Transmission in Haemaphysalis Ticks” (PLoS Pathogens, 2008).
